Results on one protein are retold here after PMC3968025, “Metabolic and Target-Site Mechanisms Combine to Confer Strong DDT Resistance in Anopheles gambiae” (PLoS ONE, 2014).

The data set deals with the molecule itself. In words: crystal structure; ZAN/U:GSH crystals, hanging drops at 22°C, 30% PEG 6000, 0.1 M Bis-Tris pH 6.5, 1 mM β-ME; soaked with DDE (not seen in the maps); 2.3 Å; two biological dimers in the asymmetric unit.

B1: GSTE2 ZAN/U variant (epsilon-class glutathione-S-transferase GSTE2 of Anopheles gambiae, allele ZAN/U 1C) (enzyme, UniProt Q7PVS6 1-221, looked up)
chain: MSNLVLYTLHLSPPCRAVELTAKALGLELEQKTINLLTGDHLKPEFVKLNPQHTIPVLDDNGTIITESHAIMIYLVTKYGKDDSLYPKDPVKQARVNSALHFESGVLFARMRFTFERILFFGKSDIPEDRVEYVQKSYELLEDTLVDDFVAGPTMTIADFSCISTISSIMGVVPLEQSKHPRIYAWIDRLKQLPYYEEANGGGGTDLGKFVLAKKEENAKA
notes: Cloned from full-length cDNA; the model runs to Ala221; One of GenBank JX840597-JX840599; Crystallised as the complex with glutathione (GSH, 1:1.2 molar ratio); biological dimer; Natural allelic variant; I114T is written against the Kisumu (ancestral) allele; also called Gste2-114T; ZAN/U:GSH; not shown: His6, N-terminal, cleaved; SUMO, N-terminal, cleaved
A word on the stoichiometry N: it is a count of units in the complex or per binding partner. As for B1, the “stoichiometry N” value was 2.
